Values quoted from earlier work, collected in publication PMC11054419.

Key:
[1] = biological target: TGF-β2 (Homo sapiens) (UniProt P61812)
[2] = biological target: TGF-β3 (Homo sapiens) (UniProt P10600)
[3] = biological target: TGF-β1 (Homo sapiens) (UniProt P01137)
Sequence of TGF-β1 (Homo sapiens) (P01137 279-390): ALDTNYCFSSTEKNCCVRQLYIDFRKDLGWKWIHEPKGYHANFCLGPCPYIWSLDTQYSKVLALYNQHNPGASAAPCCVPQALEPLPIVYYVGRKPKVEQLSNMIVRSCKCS

Sequence of TβRIII (betaglycan) (Q03167 21-787): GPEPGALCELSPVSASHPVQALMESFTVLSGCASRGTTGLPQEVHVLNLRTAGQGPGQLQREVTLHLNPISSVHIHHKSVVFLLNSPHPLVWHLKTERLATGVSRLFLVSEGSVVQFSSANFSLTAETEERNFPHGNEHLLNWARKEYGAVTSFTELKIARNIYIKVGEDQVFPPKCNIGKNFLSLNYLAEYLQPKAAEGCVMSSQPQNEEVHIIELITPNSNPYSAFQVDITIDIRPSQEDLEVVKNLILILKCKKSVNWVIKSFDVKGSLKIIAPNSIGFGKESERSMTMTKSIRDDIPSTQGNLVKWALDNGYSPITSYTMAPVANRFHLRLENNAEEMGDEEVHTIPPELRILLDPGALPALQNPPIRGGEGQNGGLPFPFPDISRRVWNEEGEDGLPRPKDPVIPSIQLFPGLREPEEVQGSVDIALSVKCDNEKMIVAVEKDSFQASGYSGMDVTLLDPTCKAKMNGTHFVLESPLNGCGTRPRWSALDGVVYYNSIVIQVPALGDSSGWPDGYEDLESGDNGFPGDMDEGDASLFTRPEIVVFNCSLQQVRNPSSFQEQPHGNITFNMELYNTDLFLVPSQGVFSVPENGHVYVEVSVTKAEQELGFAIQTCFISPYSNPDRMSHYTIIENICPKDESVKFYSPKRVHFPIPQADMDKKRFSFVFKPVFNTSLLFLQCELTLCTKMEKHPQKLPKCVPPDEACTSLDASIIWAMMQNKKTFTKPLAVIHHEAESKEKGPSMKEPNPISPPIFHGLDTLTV
Sequence of TGF-β2 (Homo sapiens) (P61812 303-414): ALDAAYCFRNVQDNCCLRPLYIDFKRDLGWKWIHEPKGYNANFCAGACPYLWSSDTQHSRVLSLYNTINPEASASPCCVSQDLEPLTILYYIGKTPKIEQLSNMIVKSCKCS
Sequence of TGF-β3 (Homo sapiens) (P10600 301-412): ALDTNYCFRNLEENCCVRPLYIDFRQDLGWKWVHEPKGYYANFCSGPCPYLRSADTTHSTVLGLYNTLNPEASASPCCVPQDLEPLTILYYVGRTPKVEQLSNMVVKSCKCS

- Kd [1]: 0.1 nM
- Kd [2]: 0.1 nM
- Kd [3]: 0.1 nM
Substance: TβRIII (betaglycan) (from UniProt Q03167)
